Experimental data reported in patent US20250066759.

System: Bs-CspB-100V80 fusion (ssRNA purification reagent, Isotag) (Bacillus subtilis)
Details: percent of spiked dsRNA eluted; greater than 4-log dsRNA removal; dsRNA ELISA

Substance “dsRNA matching the sequence and size of the eGFP ssRNA” has a binding of under 4%.
